Molecular target: surface antigen S of hepatitis B virus (Greencross Co.) (hepatitis B virus)
Assay: competitive ELISA: antibody pre-incubated with soluble surface antigen S, then plate coated with surface antigen S

B1: humanized antibody HzS-III (antibody, V domains shown)
VH: EVQLVQSGAEVKKPGASVKVSCKASGYTFTDYNVQWVRQAPGKSLEWMGYIYPYSGGTGYSQKFQGRVTLTVDNSASTAYMELSSLRSEDTAVYYCARNYGYDSSAYWGQGTLVTVSS
VL: DIVLTQSPASLAVSPGQRATITCRASESVSNYGINFINWFQQKPGQPPKLLIYTASNKGTGVPARFSGSGSGTDFTLTINPVEAEDTANYFCQQSKEVPYTFGGGTKVEIKR
Ka: 4e+09 M⁻¹

Reference: US20030096403A1
